Literature values as cited in paper PMC11468230.

What was measured:
[1] = target: KV channel (Kv1.3) (Homo sapiens) (UniProt P22001)
IKCa1 (Homo sapiens) = IKCa1 (Homo sapiens) (UniProt O15554)
[2] = target: GLP-1 receptor (Homo sapiens) (UniProt P43220)
Kv1.3 (Homo sapiens) = Kv1.3 (Homo sapiens) (UniProt P22001)

UniProt O15554, sequence (O15554 whole entry): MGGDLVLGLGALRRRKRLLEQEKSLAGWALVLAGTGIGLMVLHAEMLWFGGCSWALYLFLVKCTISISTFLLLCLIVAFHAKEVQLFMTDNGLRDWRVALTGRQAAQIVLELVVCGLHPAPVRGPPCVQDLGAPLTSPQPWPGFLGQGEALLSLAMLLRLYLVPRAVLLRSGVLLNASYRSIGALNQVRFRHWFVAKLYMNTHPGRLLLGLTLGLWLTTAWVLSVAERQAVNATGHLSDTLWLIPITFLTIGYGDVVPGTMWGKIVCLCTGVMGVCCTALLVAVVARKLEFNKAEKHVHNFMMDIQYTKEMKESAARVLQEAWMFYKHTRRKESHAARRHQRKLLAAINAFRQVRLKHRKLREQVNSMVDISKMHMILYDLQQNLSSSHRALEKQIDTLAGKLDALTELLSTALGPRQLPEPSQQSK
UniProt P43220, sequence (P43220 24-463): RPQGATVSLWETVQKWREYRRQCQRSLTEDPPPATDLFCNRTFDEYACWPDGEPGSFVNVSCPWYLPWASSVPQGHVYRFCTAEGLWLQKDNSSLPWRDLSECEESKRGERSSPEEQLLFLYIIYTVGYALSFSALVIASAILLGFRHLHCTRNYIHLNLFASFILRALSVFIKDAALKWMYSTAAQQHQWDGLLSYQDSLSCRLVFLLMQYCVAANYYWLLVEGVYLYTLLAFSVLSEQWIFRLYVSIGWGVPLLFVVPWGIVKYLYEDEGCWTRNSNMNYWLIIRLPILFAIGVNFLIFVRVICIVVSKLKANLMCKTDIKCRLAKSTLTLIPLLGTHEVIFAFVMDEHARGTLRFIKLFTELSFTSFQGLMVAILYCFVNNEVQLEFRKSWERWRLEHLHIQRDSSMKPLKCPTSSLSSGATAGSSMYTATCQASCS

Substance: Charybdotoxin (from UniProt P13487)
- Kd [1]: 3 nM
- Kd (IKCa1 (Homo sapiens)): 5 nM

Substance: exendin-4 (from UniProt P26349)
- Ki [2]: 0.46 nM

Substance: ShK (from UniProt P29187)
- Kd (Kv1.3 (Homo sapiens)): 0.011 nM
